Test results reported in patent US20080044815.

Assays:
[1] = system: FLAG-tagged JNK1(Arg-309-Trp) from the pCMV-FLAG vector, expressed in COS cells
[2] = system: FLAG-tagged JNK1(Leu-131-Arg) from the pCMV-FLAG vector, expressed in COS cells
[3] = system: FLAG-tagged JNK1(Tyr-320-His) from the pCMV-FLAG vector, expressed in COS cells
[4] = system: FLAG-tagged wild-type JNK1 from pCMV-FLAG-JNK1, expressed in COS cells
Sequence of FLAG-tagged wild-type JNK1 from pCMV-FLAG-JNK1, expressed in COS cells (chain, as listed by the source): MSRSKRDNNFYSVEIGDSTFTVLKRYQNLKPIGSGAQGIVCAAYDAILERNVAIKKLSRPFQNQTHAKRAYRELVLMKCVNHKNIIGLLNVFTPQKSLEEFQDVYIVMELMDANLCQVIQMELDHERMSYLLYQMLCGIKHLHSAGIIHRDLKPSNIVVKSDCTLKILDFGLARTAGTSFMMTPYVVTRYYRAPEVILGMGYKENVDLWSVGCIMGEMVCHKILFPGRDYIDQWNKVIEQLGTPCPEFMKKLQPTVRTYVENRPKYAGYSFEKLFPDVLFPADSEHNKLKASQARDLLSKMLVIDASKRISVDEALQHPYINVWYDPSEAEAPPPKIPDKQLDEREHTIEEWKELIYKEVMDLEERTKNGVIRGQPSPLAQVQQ

Sequence of FLAG-tagged JNK1(Leu-131-Arg) from the pCMV-FLAG vector, expressed in COS cells (chain, as listed by the source L131R): as the sequence (chain, as listed by the source) above, with L131R counted along it
Sequence of FLAG-tagged JNK1(Tyr-320-His) from the pCMV-FLAG vector, expressed in COS cells (chain, as listed by the source Y320H): as the sequence (chain, as listed by the source) above, with Y320H counted along it
Sequence of FLAG-tagged JNK1(Arg-309-Trp) from the pCMV-FLAG vector, expressed in COS cells (chain, as listed by the source R309W): as the sequence (chain, as listed by the source) above, with R309W counted along it

GST-MKK4(ED), constitutively active form of MKK4
phosphorylation of immunoprecipitated FLAG-JNK by GST-MKK4(ED), in vitro kinase assay with [32P]ATP, autoradiography [1]: the negligible amount of radioactive phosphate incorporated into any of the three JNK mutants was not increased by the presence of active MKK4 | phosphorylation of immunoprecipitated FLAG-JNK by GST-MKK4(ED), in vitro kinase assay with [32P]ATP, autoradiography [2]: the negligible amount of radioactive phosphate incorporated into any of the three JNK mutants was not increased by the presence of active MKK4 | phosphorylation of immunoprecipitated FLAG-JNK by GST-MKK4(ED), in vitro kinase assay with [32P]ATP, autoradiography [3]: the negligible amount of radioactive phosphate incorporated into any of the three JNK mutants was not increased by the presence of active MKK4 | phosphorylation of immunoprecipitated FLAG-JNK by GST-MKK4(ED), in vitro kinase assay with [32P]ATP, autoradiography [4]: The presence of active MKK4 increased the phosphorylation of wildtype JNK relative to the autophosphorylation that occurred in the absence of any upstream activator protein
